Three molecules from publication PMC7020397 (Toxins, 2020) can be followed below.

The target of assay [1] is muscle-type Torpedo nAChR (Torpedo). The assay can be described thus: competition with α-bungarotoxin.
The next assay has as its target human neuronal α7 nAChR (human, UniProt P36544 23-502). The assay can be described thus: competition with α-bungarotoxin.

Ends that are not written are not given here.

muscle-type Torpedo nAChR (Torpedo), sequence (P02710 25-461 limits assumed, chain 1 of 4): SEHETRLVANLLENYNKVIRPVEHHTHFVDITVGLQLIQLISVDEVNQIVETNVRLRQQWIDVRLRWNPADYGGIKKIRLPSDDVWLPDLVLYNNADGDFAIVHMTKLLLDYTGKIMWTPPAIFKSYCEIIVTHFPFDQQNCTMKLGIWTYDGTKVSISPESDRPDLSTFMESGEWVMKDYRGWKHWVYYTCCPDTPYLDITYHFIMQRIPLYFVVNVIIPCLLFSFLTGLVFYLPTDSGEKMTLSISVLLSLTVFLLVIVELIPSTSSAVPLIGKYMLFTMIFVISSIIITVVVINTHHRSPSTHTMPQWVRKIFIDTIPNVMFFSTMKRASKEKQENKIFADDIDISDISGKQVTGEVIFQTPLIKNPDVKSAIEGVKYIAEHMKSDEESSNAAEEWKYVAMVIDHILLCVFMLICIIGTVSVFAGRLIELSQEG
muscle-type Torpedo nAChR (Torpedo), sequence (P02712 25-493 limits assumed, chain 2 of 4, further chain): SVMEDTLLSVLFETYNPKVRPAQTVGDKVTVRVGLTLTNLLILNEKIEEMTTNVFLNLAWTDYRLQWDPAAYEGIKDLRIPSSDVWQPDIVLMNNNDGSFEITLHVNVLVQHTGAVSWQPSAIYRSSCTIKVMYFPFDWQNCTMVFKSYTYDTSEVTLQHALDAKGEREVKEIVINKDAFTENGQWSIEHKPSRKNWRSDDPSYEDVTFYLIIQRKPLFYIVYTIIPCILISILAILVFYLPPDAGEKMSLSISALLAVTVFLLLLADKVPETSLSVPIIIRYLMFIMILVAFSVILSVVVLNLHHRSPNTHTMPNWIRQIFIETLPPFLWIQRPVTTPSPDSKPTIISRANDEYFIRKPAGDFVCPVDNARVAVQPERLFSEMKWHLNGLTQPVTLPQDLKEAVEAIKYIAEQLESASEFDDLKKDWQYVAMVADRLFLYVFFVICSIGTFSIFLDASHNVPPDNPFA
muscle-type Torpedo nAChR (Torpedo), sequence (P02714 18-506 limits assumed, chain 3 of 4, further chain): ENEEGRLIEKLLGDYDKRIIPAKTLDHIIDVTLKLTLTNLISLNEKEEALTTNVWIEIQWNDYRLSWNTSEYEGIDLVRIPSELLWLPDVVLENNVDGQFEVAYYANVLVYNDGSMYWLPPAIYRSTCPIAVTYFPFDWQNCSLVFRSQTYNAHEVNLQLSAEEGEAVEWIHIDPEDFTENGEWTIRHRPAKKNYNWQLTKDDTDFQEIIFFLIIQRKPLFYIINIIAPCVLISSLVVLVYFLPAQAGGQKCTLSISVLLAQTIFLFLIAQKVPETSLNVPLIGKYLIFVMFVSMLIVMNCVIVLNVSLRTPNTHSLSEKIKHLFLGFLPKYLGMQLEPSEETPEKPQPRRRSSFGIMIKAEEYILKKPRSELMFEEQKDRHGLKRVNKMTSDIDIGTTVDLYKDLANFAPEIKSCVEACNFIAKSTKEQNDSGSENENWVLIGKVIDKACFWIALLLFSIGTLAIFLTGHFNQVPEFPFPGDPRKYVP
muscle-type Torpedo nAChR (Torpedo), sequence (P02718 22-522 limits assumed, chain 4 of 4, further chain): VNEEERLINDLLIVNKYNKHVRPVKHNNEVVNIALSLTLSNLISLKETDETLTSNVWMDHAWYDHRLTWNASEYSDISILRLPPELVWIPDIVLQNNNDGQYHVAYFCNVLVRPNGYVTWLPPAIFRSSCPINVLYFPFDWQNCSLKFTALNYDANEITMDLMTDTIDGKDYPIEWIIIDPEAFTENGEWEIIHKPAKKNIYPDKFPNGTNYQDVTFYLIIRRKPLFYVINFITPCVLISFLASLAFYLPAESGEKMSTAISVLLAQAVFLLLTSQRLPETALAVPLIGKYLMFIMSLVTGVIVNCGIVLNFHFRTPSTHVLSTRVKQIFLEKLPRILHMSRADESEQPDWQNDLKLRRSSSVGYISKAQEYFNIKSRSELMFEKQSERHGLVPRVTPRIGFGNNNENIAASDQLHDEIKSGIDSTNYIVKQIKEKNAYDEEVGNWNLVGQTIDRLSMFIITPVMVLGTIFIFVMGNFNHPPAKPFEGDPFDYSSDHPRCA
OSK-1, sequence (P55896 whole entry): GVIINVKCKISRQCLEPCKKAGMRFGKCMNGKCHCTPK
human neuronal α7 nAChR, sequence (P36544 23-502): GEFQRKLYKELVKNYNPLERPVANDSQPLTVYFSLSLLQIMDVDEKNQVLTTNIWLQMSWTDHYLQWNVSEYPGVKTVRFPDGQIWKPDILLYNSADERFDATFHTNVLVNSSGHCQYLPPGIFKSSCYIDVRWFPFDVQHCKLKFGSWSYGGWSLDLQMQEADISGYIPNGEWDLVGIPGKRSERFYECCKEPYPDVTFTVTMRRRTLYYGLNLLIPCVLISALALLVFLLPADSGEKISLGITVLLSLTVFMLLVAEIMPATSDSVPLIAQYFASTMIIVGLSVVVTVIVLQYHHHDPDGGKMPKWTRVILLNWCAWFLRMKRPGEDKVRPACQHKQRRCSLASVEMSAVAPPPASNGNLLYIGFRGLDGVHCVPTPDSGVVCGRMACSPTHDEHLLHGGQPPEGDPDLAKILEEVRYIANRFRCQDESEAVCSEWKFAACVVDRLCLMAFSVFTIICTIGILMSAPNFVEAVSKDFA

As for “spinoxin (from UniProt P84094 1-34) (peptide)”, the 50% inhibitory concentration (IC50) in assay [1] was determined as 500 nM.
For “OSK-1 (from UniProt P55896 1-38) (peptide)”, the IC50 in assay [1] was 500 nM.
Regarding DNWWPKPPHQGPRPPRPRPKP (not fully specified, source: synthetic peptide) [azemiopsin], the figures for the IC50 (in assay [1]; with human neuronal α7 nAChR) were 180 nM and 22000 nM, respectively.
